The text below walks through data of the supplement of paper PMC9112550, “Optimization of the antimicrobial peptide Bac7 by deep mutational scanning” (BMC Biology, 2022).

This data set relates to Escherichia coli TOP10. As to the kind of experiment: shrunken log2 fold change of peptide-encoding DNA abundance (4.5 h post-induction vs induction); higher = less antimicrobial activity (less host growth inhibition). The following applies: time post-induction: 4.5 h; library: site-saturation at positions 5, 18, 19, 20.
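Further: peptides expressed intracellularly from a pBAD plasmid library in pooled LB shake-flask culture, induced with 0.3% L-arabinose, DNA abundance read by NGS, three biological replicates, DESeq2 with apeglm shrinkage.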

For RRIRFRPPRLPRPRPRPGKYPRP, the “shrunken log2 fold change” value is -0.586.
Take RRIRTRPPRLPRPRPRPDYWPRP: the “shrunken log2 fold change” value was -0.149.
For RRIRDRPPRLPRPRPRPKIIPRP, the “shrunken log2 fold change” value was -0.0166.
On to RRIRLRPPRLPRPRPRPALSPRP, for which the “shrunken log2 fold change” value is 3.4.
The figure for RRIRERPPRLPRPRPRPASFPRP is -0.285; for RRIRGRPPRLPRPRPRPKNSPRP it is 0.252.
Then RRIRIRPPRLPRPRPRPYRWPRP, with 0.0522; and RRIRPRPPRLPRPRPRPNSWPRP, with -0.299; and RRIRRRPPRLPRPRPRPSHYPRP, with -0.131.
The figure for RRIRTRPPRLPRPRPRPVVDPRP is 0.452; for RRIRDRPPRLPRPRPRPTDLPRP it is -0.0718; for RRIRVRPPRLPRPRPRPKKHPRP it is -0.0486.
For the sequence RRIRFRPPRLPRPRPRPRRPPRP, the “shrunken log2 fold change” value amounted to 0.668.
Then RRIRVRPPRLPRPRPRPAPTPRP, with 0.638; and RRIRPRPPRLPRPRPRPAPWPRP, with 0.436.
As to RRIRYRPPRLPRPRPRPIGVPRP, the “shrunken log2 fold change” value is -0.0936.
The figure for RRIRIRPPRLPRPRPRPDLVPRP is -0.201.
Then RRIRMRPPRLPRPRPRPAKQPRP, with 1.12.
Then RRIRNRPPRLPRPRPRPDDYPRP, with 0.00129; and RRIRRRPPRLPRPRPRPHRAPRP, with 0.243.
In the case of RRIRKRPPRLPRPRPRPHYVPRP, the “shrunken log2 fold change” value was -0.0482.
In the case of RRIRLRPPRLPRPRPRPTEFPRP, the “shrunken log2 fold change” value is 0.0447.
Take RRIRYRPPRLPRPRPRPKWPPRP: the “shrunken log2 fold change” value is -0.0557.
Regarding RRIRMRPPRLPRPRPRPAWHPRP, the “shrunken log2 fold change” value came out at 0.726.
Then RRIRTRPPRLPRPRPRPCHDPRP, with -0.215; and RRIRNRPPRLPRPRPRPCRTPRP, with -0.124; and RRIRPRPPRLPRPRPRPWSFPRP, with -0.185.
Then RRIRWRPPRLPRPRPRPTPLPRP, with 0.557; and RRIRLRPPRLPRPRPRPTVTPRP, with -0.0848; and RRIRPRPPRLPRPRPRPQCNPRP, with -0.0419.
Then RRIRARPPRLPRPRPRPGKRPRP, with 0.374.
Turning to RRIRWRPPRLPRPRPRPSNPPRP, the “shrunken log2 fold change” value is -0.218.
RRIRRRPPRLPRPRPRPMYWPRP: the “shrunken log2 fold change” value is -0.185.
As to RRIRYRPPRLPRPRPRPLVRPRP, the “shrunken log2 fold change” value is -0.0244.
With RRIRVRPPRLPRPRPRPARVPRP, the “shrunken log2 fold change” value stood at 0.263.
Then RRIRTRPPRLPRPRPRPQNTPRP, with -0.622; and RRIRVRPPRLPRPRPRPKYMPRP, with -0.433.
With RRIRYRPPRLPRPRPRPMSGPRP, the “shrunken log2 fold change” value was -0.748.
Then RRIRQRPPRLPRPRPRPIHLPRP, with -0.137; and RRIRKRPPRLPRPRPRPVWKPRP, with 0.138.
The figure for RRIRQRPPRLPRPRPRPDSRPRP is -0.0119; for RRIRNRPPRLPRPRPRPNVVPRP it is -0.122; for RRIRPRPPRLPRPRPRPCLLPRP it is -0.258.
On to RRIRTRPPRLPRPRPRPKSEPRP, for which the “shrunken log2 fold change” value is -0.144.
As for RRIRMRPPRLPRPRPRPYMCPRP, the “shrunken log2 fold change” value is 0.00451.
The figure for RRIRYRPPRLPRPRPRPQYWPRP is -0.696; for RRIRTRPPRLPRPRPRPFFQPRP it is 0.0474; for RRIRRRPPRLPRPRPRPPHHPRP it is 1.09.
Then RRIRIRPPRLPRPRPRPNAPPRP, with 0.00635; and RRIRFRPPRLPRPRPRPCSSPRP, with 0.0898; and RRIRCRPPRLPRPRPRPQERPRP, with -0.028.
The figure for RRIRWRPPRLPRPRPRPNMTPRP is 0.0683; for RRIRPRPPRLPRPRPRPTRGPRP it is 0.543; for RRIRTRPPRLPRPRPRPLHIPRP it is 0.0174.
Consider RRIRYRPPRLPRPRPRPTKEPRP, for which the “shrunken log2 fold change” value is -0.00889.
Consider RRIRDRPPRLPRPRPRPNNRPRP, for which the “shrunken log2 fold change” value was -0.178.
Then RRIRTRPPRLPRPRPRPGWRPRP, with 0.69; and RRIRGRPPRLPRPRPRPCQDPRP, with -0.233; and RRIRCRPPRLPRPRPRPGDQPRP, with 0.256.
The figure for RRIRQRPPRLPRPRPRPQAFPRP is -0.0347.
Then RRIRYRPPRLPRPRPRPSPNPRP, with -1.34.
For the sequence RRIRIRPPRLPRPRPRPYAQPRP, the “shrunken log2 fold change” value was -0.121.
For the sequence RRIRNRPPRLPRPRPRPACHPRP, the “shrunken log2 fold change” value was found to be 0.152.
Then RRIRMRPPRLPRPRPRPQQVPRP, with 0.00763.
RRIRQRPPRLPRPRPRPAYIPRP: the “shrunken log2 fold change” value was -0.00563.
As to RRIRQRPPRLPRPRPRPGANPRP, the “shrunken log2 fold change” value amounted to 0.17.
As to RRIRCRPPRLPRPRPRPSRLPRP, the “shrunken log2 fold change” value is 0.0589.
RRIRVRPPRLPRPRPRPDYKPRP: the “shrunken log2 fold change” value turned out to be 0.105.
As to RRIRHRPPRLPRPRPRPRSIPRP, the “shrunken log2 fold change” value is -0.374.
The figure for RRIRTRPPRLPRPRPRPAWQPRP is -0.0092; for RRIRHRPPRLPRPRPRPARCPRP it is 0.252.
The figure for RRIRQRPPRLPRPRPRPSTMPRP is 0.0933; for RRIRMRPPRLPRPRPRPVYTPRP it is 0.194.
Then RRIRHRPPRLPRPRPRPLRTPRP, with 1.02.
As for RRIRMRPPRLPRPRPRPWWRPRP, the “shrunken log2 fold change” value is 0.494.
Then RRIRLRPPRLPRPRPRPTWSPRP, with 0.201; and RRIRSRPPRLPRPRPRPASAPRP, with 0.243; and RRIRHRPPRLPRPRPRPELCPRP, with -0.135.
Then RRIRRRPPRLPRPRPRPWAEPRP, with 2.36; and RRIRIRPPRLPRPRPRPKVEPRP, with 0.195; and RRIRSRPPRLPRPRPRPIEWPRP, with 0.0274.
The figure for RRIRMRPPRLPRPRPRPNRKPRP is -0.0954.
On to RRIRMRPPRLPRPRPRPRYGPRP, for which the “shrunken log2 fold change” value was 0.0305.
RRIRKRPPRLPRPRPRPKVNPRP: the “shrunken log2 fold change” value came out at 0.0581.
On to RRIRGRPPRLPRPRPRPITCPRP, for which the “shrunken log2 fold change” value is -0.00623.
The figure for RRIRRRPPRLPRPRPRPIEGPRP is 0.0101.
Then RRIRNRPPRLPRPRPRPWRKPRP, with -0.0392; and RRIRDRPPRLPRPRPRPQSTPRP, with -0.466; and RRIRSRPPRLPRPRPRPVDVPRP, with 0.126.
The figure for RRIRTRPPRLPRPRPRPCDKPRP is -0.138; for RRIRARPPRLPRPRPRPHRCPRP it is 0.0993.
RRIRHRPPRLPRPRPRPRGTPRP: the “shrunken log2 fold change” value was -0.164.
The figure for RRIRWRPPRLPRPRPRPGPIPRP is 0.171.
The figure for RRIRLRPPRLPRPRPRPRDNPRP is -0.127.
On to RRIRQRPPRLPRPRPRPYVKPRP, for which the “shrunken log2 fold change” value is -0.365.
The figure for RRIRCRPPRLPRPRPRPPHNPRP is 0.919; for RRIRIRPPRLPRPRPRPEAPPRP it is 0.366; for RRIRMRPPRLPRPRPRPVIVPRP it is -0.313.
Then RRIRSRPPRLPRPRPRPNRSPRP, with -0.0737; and RRIRFRPPRLPRPRPRPSYKPRP, with -0.819.
Turning to RRIRVRPPRLPRPRPRPRWEPRP, the “shrunken log2 fold change” value was 0.329.
The figure for RRIRPRPPRLPRPRPRPVPDPRP is 0.00557; for RRIRSRPPRLPRPRPRPSAKPRP it is 2.05; for RRIRMRPPRLPRPRPRPHTWPRP it is -0.0904.
Consider RRIRPRPPRLPRPRPRPRGEPRP, for which the “shrunken log2 fold change” value amounted to 0.646.
Then RRIRLRPPRLPRPRPRPLFWPRP, with 0.12; and RRIRIRPPRLPRPRPRPTKQPRP, with -0.242; and RRIRNRPPRLPRPRPRPYCCPRP, with -0.564.
Turning to RRIRHRPPRLPRPRPRPEQSPRP, the “shrunken log2 fold change” value was -0.0805.
Consider RRIRGRPPRLPRPRPRPEDQPRP, for which the “shrunken log2 fold change” value turned out to be 0.0373.
The figure for RRIRMRPPRLPRPRPRPSCNPRP is 0.197; for RRIRKRPPRLPRPRPRPSKHPRP it is 0.0908.
Then RRIRVRPPRLPRPRPRPALHPRP, with 0.202.
The figure for RRIRSRPPRLPRPRPRPILKPRP is -0.469; for RRIRYRPPRLPRPRPRPVWHPRP it is -0.0131.
For RRIRSRPPRLPRPRPRPSQGPRP, the “shrunken log2 fold change” value was -0.252.
Then RRIRYRPPRLPRPRPRPAGAPRP, with 0.421; and RRIRNRPPRLPRPRPRPSMVPRP, with -0.508; and RRIRDRPPRLPRPRPRPNDNPRP, with -0.563.
RRIRMRPPRLPRPRPRPHYVPRP: the “shrunken log2 fold change” value was -0.0815.
The figure for RRIRCRPPRLPRPRPRPVGHPRP is 0.0304; for RRIRMRPPRLPRPRPRPHMMPRP it is -0.135.
The figure for RRIRCRPPRLPRPRPRPRRTPRP is 0.54; for RRIRHRPPRLPRPRPRPRDNPRP it is 0.0766.
Take RRIRYRPPRLPRPRPRPNVEPRP: the “shrunken log2 fold change” value is -0.155.
